PMC10515612, “Analytical Ultracentrifugation-Calibrated Anion-Exchange Chromatography for Sensitive and Intact Determination of Osteopontin in Infant Formula and Dairy Products” (Journal of Agricultural and Food Chemistry, 2023)
Where “and” joins values, the source holds several entries; their conditions need not be identical. Equal values may be shown once.

Molecular target: the molecule itself
Test: AUC; sedimentation velocity, interference optics, OPN 1 mg/mL, 20 °C, 50,000 rpm; buffer changed from 20 mM THAM (10 mM NaCl, pH 8.00) to 20 mM PBS

B1: Osteopontin (bovine milk osteopontin, in-house reference standard) (natural protein)
chain: not shown
modifications: phosphorylations (~1.7 kDa) and O-linked glycosylations (2.9 kDa) on the full-length form; sites not given
notes: Osteopontin, bovine, from milk; By MALDI-TOF the material also holds an N-terminal fragment (150 amino acids, ~19.8 kDa); The sample is a mixture of full-length OPN and an N-terminal fragment of about 150 residues; also called OPN; bovine OPN; source: high-purity OPN protein ingredient extracted and provided by Arla Foods Ingredients (Denmark)
B1 was tested, and the “stoichiometry N” value was 4 and 8.
